Legend:
[1] = molecular target: L21A variant of HIV-1 gp41 Core (Core^L21A) (HIV-1 (HXB2 numbering named)); assay: NMR, 15N ZZ exchange
[2] = molecular target: L21A variant of HIV-1 gp41 Core (Core^L21A) (HIV-1 (HXB2 numbering named)); assay: SEC-MALS
[3] = molecular target: L21A variant of HIV-1 gp41 Core (Core^L21A) (HIV-1 (HXB2 numbering named)); assay: NMR, 1H-15N HSQC resonance amplitudes of trimer and monomer

L21A variant of HIV-1 gp41 Core (Core^L21A) (domain or fragment)
kex (koff[B]^2 + 3kon[M]^2) [1]: 1.05 s⁻¹
stoichiometry N [2]: 3
Kd = [M]^3/([T][B]^2) (6HB trimer + 2 bicelles to 3 lipid-bound monomers) [3]: 2.8
population of the lipid-bound (monomeric) state [3]: 71%
